The values below come from patent US20070280985A1.

Holding throughout (experiment): cell-based or functional assay
Assay [1] deals with Connexin 40 (human) (UniProt P36382).
Assay [2] concerns the target Connexin 37 (human) (UniProt P35212).
Assay [3] addresses Connexin 43 (human) (UniProt P17302).
Sequence of UniProt P17302 (P17302 2-382): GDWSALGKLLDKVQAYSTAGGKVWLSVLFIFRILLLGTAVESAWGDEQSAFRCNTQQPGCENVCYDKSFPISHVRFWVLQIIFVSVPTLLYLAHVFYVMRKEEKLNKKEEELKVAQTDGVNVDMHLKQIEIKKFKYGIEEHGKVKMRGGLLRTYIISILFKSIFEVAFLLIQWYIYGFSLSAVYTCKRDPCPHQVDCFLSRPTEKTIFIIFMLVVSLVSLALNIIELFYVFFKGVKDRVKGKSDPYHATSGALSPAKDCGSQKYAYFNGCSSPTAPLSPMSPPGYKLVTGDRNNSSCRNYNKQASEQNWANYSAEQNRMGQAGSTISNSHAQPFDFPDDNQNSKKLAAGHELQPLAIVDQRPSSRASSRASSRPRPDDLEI

Sequence of UniProt P35212 (P35212 whole entry): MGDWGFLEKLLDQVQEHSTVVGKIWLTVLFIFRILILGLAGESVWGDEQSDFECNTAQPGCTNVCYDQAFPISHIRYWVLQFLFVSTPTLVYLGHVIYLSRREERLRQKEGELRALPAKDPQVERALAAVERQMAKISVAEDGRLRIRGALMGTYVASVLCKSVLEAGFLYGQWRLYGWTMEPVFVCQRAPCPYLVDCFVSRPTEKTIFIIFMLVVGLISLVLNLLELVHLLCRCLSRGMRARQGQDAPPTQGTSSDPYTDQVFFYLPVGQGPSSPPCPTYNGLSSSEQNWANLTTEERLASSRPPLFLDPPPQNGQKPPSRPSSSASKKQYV
Sequence of UniProt P36382 (P36382 whole entry): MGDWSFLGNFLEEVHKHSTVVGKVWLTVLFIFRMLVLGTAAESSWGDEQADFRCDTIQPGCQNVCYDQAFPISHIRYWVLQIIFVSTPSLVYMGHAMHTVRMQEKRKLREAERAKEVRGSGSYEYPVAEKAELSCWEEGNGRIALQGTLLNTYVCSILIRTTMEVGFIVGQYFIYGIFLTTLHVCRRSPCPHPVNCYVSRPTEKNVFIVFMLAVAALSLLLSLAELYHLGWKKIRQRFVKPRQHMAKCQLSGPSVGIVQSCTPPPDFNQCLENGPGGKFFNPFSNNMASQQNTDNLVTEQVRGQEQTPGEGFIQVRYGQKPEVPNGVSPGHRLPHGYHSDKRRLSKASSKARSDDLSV

In the case of mimetic peptide 40Gap27, in assay [1], the decrease in Lucifer Yellow dye-coupling (GJIC) in HAEC after 5 hours of flow was 33% and the decrease in Lucifer Yellow dye-coupling (GJIC) in HAEC after 16 hours of flow was found to be 57%.

As to Cx mimetic peptide 43,37Gap27, the Lucifer Yellow dye-coupling (GJIC) in HAEC after 16 hours of flow in assay [2] and in assay [3] was 26% in each case. The decrease in flow-induced GJIC (dye-coupling) in HAEC in assay [2] and in assay [3] was 25% in each case.
